Data from patent US8617883.

Target: Ephrin-B2 (human, full length coding sequence, expressed on mesenchymal stem cells nucleofected with pEphrin-B2/IRES2-eGFP) (human) (UniProt P52799)
Experiment: flow cytometry, Fc-chimera binding to Ephrin-B2-transfected MSCs against untransfected MSCs, FITC anti-human IgG1 detection

Chain of UniProt P52799 (P52799 28-333): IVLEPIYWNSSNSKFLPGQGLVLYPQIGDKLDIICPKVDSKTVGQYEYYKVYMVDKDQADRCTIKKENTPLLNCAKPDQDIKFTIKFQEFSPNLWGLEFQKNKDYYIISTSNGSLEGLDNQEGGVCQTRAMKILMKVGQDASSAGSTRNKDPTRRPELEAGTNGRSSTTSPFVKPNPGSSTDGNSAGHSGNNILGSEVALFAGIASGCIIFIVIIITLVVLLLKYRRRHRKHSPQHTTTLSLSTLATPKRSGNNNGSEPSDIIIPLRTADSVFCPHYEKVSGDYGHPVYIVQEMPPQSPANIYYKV

increase in binding to transfected MSCs compared to normal cells: 22%
Substance: Eph-B4/Fc chimera protein (pre-clustered) (Fc fusion)
